Experiment [1] deals with T1, Tissue Factor on MDA-MB-231 cells (UniProt P13726 33-295, limits assumed).
T1 construct: whole, on cells
Description: flow cytometry on MDA-MB-231 cells, Alexa Fluor 488 anti-human IgG.

The target of experiment [2] is T2, antigen protein TF (UniProt P13726 33-251, limits assumed).
T2 construct: Soluble TF used in ELISA coating and BLI; also called TF protein; Tissue Factor
Briefly: BLI (Fortebio), antibody on ProA sensor, 1:1 model. A general note: Biolayer interferometry detects binding as a change in optical thickness at a sensor tip.

In experiment [3] the target is T2, antigen protein TF. Briefly: ELISA, TF coated at 1 µg/mL, HRP-Protein A detection. For orientation: An ELISA detects its analyte on a solid surface through an enzyme-linked reagent.

T2 sequence (P13726 33-251 limits assumed): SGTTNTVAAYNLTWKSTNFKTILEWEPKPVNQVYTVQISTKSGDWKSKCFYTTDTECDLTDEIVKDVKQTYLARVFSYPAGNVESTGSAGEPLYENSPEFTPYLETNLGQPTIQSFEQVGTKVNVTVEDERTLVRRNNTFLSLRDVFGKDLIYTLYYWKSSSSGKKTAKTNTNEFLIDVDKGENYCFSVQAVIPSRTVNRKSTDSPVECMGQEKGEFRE
T1 sequence (P13726 33-295 limits assumed): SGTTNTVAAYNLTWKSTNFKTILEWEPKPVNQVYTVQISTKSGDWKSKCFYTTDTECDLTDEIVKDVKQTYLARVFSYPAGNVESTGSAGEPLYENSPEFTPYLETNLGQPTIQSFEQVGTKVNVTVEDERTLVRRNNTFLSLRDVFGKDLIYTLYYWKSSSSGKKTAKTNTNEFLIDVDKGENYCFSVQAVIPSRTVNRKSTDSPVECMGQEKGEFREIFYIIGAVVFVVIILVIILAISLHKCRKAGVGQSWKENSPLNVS

B1: h1849-H2L1 (antibody, human IgG1, kappa, V domains shown)
VH: EVQLVESGGGVVQPGRSLRLSCAASGFTFSDYNMAWIRQAPGKGLEWVAAIIYDGTRTYYRDSVKGRFTISRDNSKSTLYLQMDSLRAEDTAVYYCATGDSYTNFAYWGQGTLVTVSS
VL: EIVLTQSPTFLSASVGDRVTITCRASSSLSYMHWYQQKPGTSPKLLIYETSKLQSGVPSRFSGSGSGTSFTLTIDSLQPEDFATYYCQQGNSYPRTFGGGTKVEIKR
notes: also called humanized anti-TF antibody
As usually defined, the EC50 is the concentration that produces a half-maximal response. By Kd is commonly meant the concentration at which binding is half-saturated. Higher therefore signals a looser complex. As usually defined, the koff is the rate constant with which the complex falls apart. A high value points to fast dissociation. One may read the kon as the rate constant with which the complex forms. Consider B1, for which the EC50 in experiment [1] is 1.13 µg/mL. In the experiment with antigen protein TF [2], this molecule returned a Kd of 0.43 nM, a koff of 0.000169 s⁻¹ and a kon of 392000 M⁻¹ s⁻¹. This molecule also returned an EC50 in the experiment with antigen protein TF [3] of 0.0155 µg/mL.

B2: h1849-H3L3 (antibody, human IgG1, kappa, V domains shown)
VH: EVQLVESGGGVVQPGRSLRLSCAASGFTFSDYNMAWIRQAPGKGLEWVAAIIYDGTRTYYRDSVKGRFTISRDNSKSTLYLQMNSLRAEDTAVYYCATGDSYTNFAYWGQGTLVTVSS
VL: EIVLTQSPTSLSASVGDRVTITCRASSSLSYMHWYQQKPGTSPKLLIYETSKLESGVPSRFSGSGSGTDFTLTIDSLQPEDFATYYCQQGNSYPRTFGGGTKVEIKR
notes: as for B1
B2 came in with a concentration for a half-maximal effect (EC50) in experiment [1] of 2.3 µg/mL. In the experiment with antigen protein TF [2], this molecule returned a koff of less than 1e-07 s⁻¹ and a kon of 324000 M⁻¹ s⁻¹. Moreover, in the experiment with antigen protein TF [3], the response was half-maximal at 0.0191 µg/mL (EC50).
